{"source": "the RNAGym collection of RNA variant scans (doi:10.7554/elife.80360)", "parents": {"B1": {"name": "Hairpin Ribozyme (parent)", "chain": "GUCCUCUUUCACGUGCGCGUGAAAGAGAGAAGUGAACCAGAGAAACACACGUUGUGGUAUAUUACCUGGUA"}}, "data": [{"variants_of": "B1", "assay": "self-cleavage, relative activity (ratio to wild type); higher = more cleavage; co-transcriptional", "values": [{"variant": "GUCCUCUUUCACAUGCGCGUGAAAGAGAGAAGUCAACCAGAGAAACACACGUUGUGGUAUAUUACCUGGUA", "note": "[G13A G34C]", "self-cleavage": 1.33}, {"variant": "GUCCUCUUUCACCUGCGCGUGGAAGAGAGAAGUGAACCAGAGAAACACACGUUGUGGUAUAUUACCUGGUA", "note": "[G13C A22G]", "self-cleavage": 0.496}, {"variant": "GUCCUCUUUCACCUGCGCGUGAAAGAGAGAAGUGAACCAGAGAAACACACGUUGUGGUAUAUUACCUGGUA", "note": "[G13C]", "self-cleavage": 0.681}, {"variant": "GUCCUCUUUCACAUGCGCGUGAAAGAGAGAAGUGAACCAGAGAAACACACGUUGCGGUAUAUUACCUGGUA", "note": "[G13A U55C]", "self-cleavage": 0.214}, {"variant": "GUCCUCUUUCACCUGCGCGUGAAAGUGAGAAGUGAACCAGAGAAACACACGUUGUGGUAUAUUACCUGGUA", "note": "[G13C A26U]", "self-cleavage": 0.406}, {"variant": "GUCCUCUUUCACCUGCGCGUGAAUGAGAGAAGUGAACCAGAGAAACACACGUUGUGGUAUAUUACCUGGUA", "note": "[G13C A24U]", "self-cleavage": 0.735}, {"variant": "GUCCUCUUUCACCUGCGCGUGAAAGAGAGAGGUGAACCAGAGAAACACACGUUGUGGUAUAUUACCUGGUA", "note": "[G13C A31G]", "self-cleavage": 0.515}, {"variant": "GUCCUCUUUCACCUGCGCGUGAAAGAGAGACGUGAACCAGAGAAACACACGUUGUGGUAUAUUACCUGGUA", "note": "[G13C A31C]", "self-cleavage": 0.227}, {"variant": "GUCCUCUUUCACAUGCGCGUGAAAGAGAGAAGUGAACCAGAGAAACACACGUUGUGGUAUAUUACCUAGUA", "note": "[G13A G68A]", "self-cleavage": 0.275}, {"variant": "GUCCUCUUUCACAUGCGCGUGAAAGAGAGAAGUGAACCAUAGAAACACACGUUGUGGUAUAUUACCUGGUA", "note": "[G13A G40U]", "self-cleavage": 0.129}, {"variant": "GUCCUCUUUCACAUGCGCGUGAAAGAGAGAAGUGAACCAGAGAAACACACGUUGUGGUAAAUUACCUGGUA", "note": "[G13A U60A]", "self-cleavage": 0.714}, {"variant": "GUCCUCUUUCACAUGCGCGUGAAAGAGAGAAGUGAACCAGAGAAACACACGUUGUGGUAGAUUACCUGGUA", "note": "[G13A U60G]", "self-cleavage": 0.374}, {"variant": "GUCCUCUUUCACAUGCGCGCGAAAGAGAGAAGUGAACCAGAGAAACACACGUUGUGGUAUAUUACCUGGUA", "note": "[G13A U20C]", "self-cleavage": 0.902}, {"variant": "GUCCUCUUUCACCUGCGCGUGAAAGAGCGAAGUGAACCAGAGAAACACACGUUGUGGUAUAUUACCUGGUA", "note": "[G13C A28C]", "self-cleavage": 0.343}, {"variant": "GUCCUCUUUCACAUGCGCGUGAAAGAGAGAAGUGAACCAGAGAAACACACGUUGUGGUAUAUUACCGGGUA", "note": "[G13A U67G]", "self-cleavage": 0.18}, {"variant": "GUCCUCUUUCACCUGCGCGUGAAAGAGAGUAGUGAACCAGAGAAACACACGUUGUGGUAUAUUACCUGGUA", "note": "[G13C A30U]", "self-cleavage": 0.14}, {"variant": "GUCCUCUUUCACAUGCGCGUGAAAGAGAGAAGUGAACCAGAGAAACACACGUUGUGUUAUAUUACCUGGUA", "note": "[G13A G57U]", "self-cleavage": 0.205}, {"variant": "GUCCUCUUUCACAUGCGCGUGAAAGAGAGAAGUGAACCAGAGAAACACACGUUGUGGUAUAUUACCUGGCA", "note": "[G13A U70C]", "self-cleavage": 0.615}, {"variant": "GUCCUCUUUCACCUGCGCGUGAAAGAGAGAAGUGAACCAGAGAAGCACACGUUGUGGUAUAUUACCUGGUA", "note": "[G13C A45G]", "self-cleavage": 0.178}, {"variant": "GUCCUCUUUCACCUGCGCGUGAAAGAGAGAAGUGAACCAGAGAACCACACGUUGUGGUAUAUUACCUGGUA", "note": "[G13C A45C]", "self-cleavage": 0.145}, {"variant": "GUCCUCUUUCACCUGCGCGUGAAAGAGAGAAGUGAACCAGAGAAUCACACGUUGUGGUAUAUUACCUGGUA", "note": "[G13C A45U]", "self-cleavage": 0.0506}, {"variant": "GUCCUCUUUCACAUGCGCGUGAAAGAGAGAAGUGAACCAGAGAAACACACGUUGUGGUAUAUGACCUGGUA", "note": "[G13A U63G]", "self-cleavage": 0.0786}, {"variant": "GUCCUCUUUCACAUGCGCGUGAAAGAGAGAAGUGAACCAGAGAAACACACGUUGUGGUAUAUCACCUGGUA", "note": "[G13A U63C]", "self-cleavage": 0.175}, {"variant": "GUCCUCUUUCACCUGCGCGUGAAAGAGAGAAGUGGACCAGAGAAACACACGUUGUGGUAUAUUACCUGGUA", "note": "[G13C A35G]", "self-cleavage": 0.801}, {"variant": "GUCCUCUUUCACCUGCGCGUGAAAGAGAGAAGUGUACCAGAGAAACACACGUUGUGGUAUAUUACCUGGUA", "note": "[G13C A35U]", "self-cleavage": 0.552}, {"variant": "GUCCUCUUUCACAUGCGCGUGAAAGAGAGAAGUGAACCAGAGAAACACACGUGGUGGUAUAUUACCUGGUA", "note": "[G13A U53G]", "self-cleavage": 0.597}, {"variant": "GUCCUCUUUCACCUGCGCGUGAUAGAGAGAAGUGAACCAGAGAAACACACGUUGUGGUAUAUUACCUGGUA", "note": "[G13C A23U]", "self-cleavage": 0.491}, {"variant": "GUCCUCUUUCACCUGCGCGUGAGAGAGAGAAGUGAACCAGAGAAACACACGUUGUGGUAUAUUACCUGGUA", "note": "[G13C A23G]", "self-cleavage": 0.373}, {"variant": "GUCCUCUUUCACCUGCGCGUGACAGAGAGAAGUGAACCAGAGAAACACACGUUGUGGUAUAUUACCUGGUA", "note": "[G13C A23C]", "self-cleavage": 0.364}, {"variant": "GUCCUCUUUCACAUGCGCGUGAAAGAGAGAAGUGAACCAGAGAAACACACGUUUUGGUAUAUUACCUGGUA", "note": "[G13A G54U]", "self-cleavage": 0.42}, {"variant": "GUCCUCUUUCACAUGCGCGUGAAAGAGAGAAGUGAACCAGAGAAACACACGUUCUGGUAUAUUACCUGGUA", "note": "[G13A G54C]", "self-cleavage": 0.346}, {"variant": "GUCCUCUUUCACCUGCGCGUGAAAGAGAGAAGUGAACCAGAGAAACGCACGUUGUGGUAUAUUACCUGGUA", "note": "[G13C A47G]", "self-cleavage": 0.21}, {"variant": "GUCCUCUUUCACCUGCGCGUGAAAGAGAGAAGUGAACCAGAGAAACCCACGUUGUGGUAUAUUACCUGGUA", "note": "[G13C A47C]", "self-cleavage": 0.205}, {"variant": "GUCCUCUUUCACCUGCGCGUGAAAGAGAGAAGUGAACCAGAGAAACUCACGUUGUGGUAUAUUACCUGGUA", "note": "[G13C A47U]", "self-cleavage": 0.109}, {"variant": "GUCCUCUUUCACCUGCGCGUGAAAGAGAGAAGUGAACCAGAGAGACACACGUUGUGGUAUAUUACCUGGUA", "note": "[G13C A44G]", "self-cleavage": 0.127}, {"variant": "GUCCUCUUUCACAUGCGCGUGAAAGAGAGAAGUGAACCAGAGAAACACACGUUGUCGUAUAUUACCUGGUA", "note": "[G13A G56C]", "self-cleavage": 0.119}, {"variant": "GUCCUCUUUCACAUGCGCGUGAAAGAGAGAAGUGAACCAGAGAAACACACGUUGUGGUAUAGUACCUGGUA", "note": "[G13A U62G]", "self-cleavage": 0.106}, {"variant": "GUCCUCUUUCACCUGCGCGUGAAAGAGAGAAGUGAACCAGAGAAACACACGUUGUGGUGUAUUACCUGGUA", "note": "[G13C A59G]", "self-cleavage": 0.13}]}]}
